# Data: article PMC6212398, “Competing protein-protein interactions regulate binding of Hsp27 to its client protein tau” (Nature Communications, 2018)
# Tests used:
# Hsp27 ΔNTD GPG (human) = Hsp27 ΔNTD GPG (human) (UniProt P04792); assay: not stated; oligomeric state of Hsp27 GPG, ΔNTD and ΔNTD GPG (Supplementary Figure 8B, 8C); method not given
# [1] = target: Hsp27 alpha-crystallin domain (ACD, residues Q80–S176) (human) (UniProt P04792); assay: ITC; K18 tau with Hsp27 ACD (Supplementary Figure 3B); limited by solubility
# [2] = target: Hsp27 alpha-crystallin domain (ACD, residues Q80–S176) (human) (UniProt P04792); assay: ELISA; competitive ELISA of K18 tau on Hsp27 ACD (Supplementary Figure 3A); format not told
# Chain of Hsp27 alpha-crystallin domain (ACD, residues Q80–S176) (human) (P04792 80-176): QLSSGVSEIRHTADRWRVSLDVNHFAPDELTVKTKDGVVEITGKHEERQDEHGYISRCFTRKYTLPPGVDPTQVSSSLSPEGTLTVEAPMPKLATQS
stoichiometry N (Hsp27 ΔNTD GPG (human)),Kd [1] [µM],IC50 [2] [µM],Substance
2,–,–,Hsp27 ΔNTD GPG (from UniProt P04792 80-205) (domain or fragment)
–,> 100,> 100,K18 tau (the four microtubule-binding repeats) (domain or fragment)
